Literature values in PMC11329504, “Identification of novel small molecule-based strategies of COL7A1 upregulation and readthrough activity for the treatment of recessive dystrophic epidermolysis bullosa” (Scientific Reports, 2024).
pKd: −log10 of the molar value.

Biological target: Laminin 5 (Homo sapiens) (UniProt Q16787)

Chain of Collagen VII NC1 NC1 (Q02388 17-1253): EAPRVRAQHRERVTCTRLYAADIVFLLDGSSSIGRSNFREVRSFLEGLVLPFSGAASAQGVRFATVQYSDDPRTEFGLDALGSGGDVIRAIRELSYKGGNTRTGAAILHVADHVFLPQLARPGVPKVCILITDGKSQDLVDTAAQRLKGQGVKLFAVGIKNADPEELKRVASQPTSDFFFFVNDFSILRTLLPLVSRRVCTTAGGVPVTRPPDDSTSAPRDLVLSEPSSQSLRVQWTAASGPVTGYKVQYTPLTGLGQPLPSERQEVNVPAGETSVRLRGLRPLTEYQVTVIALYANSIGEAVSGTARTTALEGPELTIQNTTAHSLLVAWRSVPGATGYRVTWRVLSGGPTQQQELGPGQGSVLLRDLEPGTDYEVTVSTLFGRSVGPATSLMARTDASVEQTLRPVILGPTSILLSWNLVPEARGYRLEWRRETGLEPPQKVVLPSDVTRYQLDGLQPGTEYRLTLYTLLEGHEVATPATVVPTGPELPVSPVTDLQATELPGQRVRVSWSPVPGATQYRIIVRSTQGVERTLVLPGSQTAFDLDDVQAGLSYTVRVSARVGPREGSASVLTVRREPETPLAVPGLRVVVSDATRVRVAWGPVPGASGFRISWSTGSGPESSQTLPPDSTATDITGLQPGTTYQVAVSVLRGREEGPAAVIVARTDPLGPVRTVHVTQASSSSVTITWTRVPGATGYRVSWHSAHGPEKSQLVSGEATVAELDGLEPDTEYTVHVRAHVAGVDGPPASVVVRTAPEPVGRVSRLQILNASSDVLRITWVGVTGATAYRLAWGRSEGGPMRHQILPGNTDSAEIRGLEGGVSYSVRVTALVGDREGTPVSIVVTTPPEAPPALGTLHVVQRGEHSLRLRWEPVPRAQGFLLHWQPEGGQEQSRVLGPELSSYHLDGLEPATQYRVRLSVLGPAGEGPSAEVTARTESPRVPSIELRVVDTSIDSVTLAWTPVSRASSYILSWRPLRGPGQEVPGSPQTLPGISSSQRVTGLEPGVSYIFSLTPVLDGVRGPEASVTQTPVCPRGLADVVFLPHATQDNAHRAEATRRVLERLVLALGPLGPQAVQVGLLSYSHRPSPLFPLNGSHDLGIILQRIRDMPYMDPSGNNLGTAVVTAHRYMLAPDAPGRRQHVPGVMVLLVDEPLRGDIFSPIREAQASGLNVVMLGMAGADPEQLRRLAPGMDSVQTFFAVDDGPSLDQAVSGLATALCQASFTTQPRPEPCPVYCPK

pKd: 7.32
Substance: Collagen VII NC1 NC1 (from UniProt Q02388)
